Test results reported in US12043671B2, “Antibodies targeting an amphiregulin-derived cell surface neo-epitope” (Gundersen Lutheran Medical Foundation, Inc., priority 2021, dated 2024).

Legend:
cleaved-AREG peptide = target: T1, cleaved-AREG peptide (Homo sapiens, UniProt P15514); test: ELISA binding of 1A3 and 1A3-VC-PAB-MMAE to cleaved-AREG peptide; conditions: 0.001-1 μg/mL
T1 construct: host or cells: synthetic peptide
Method: Maxisorp flat bottom 96-well plates (Thermo Fisher Scientific) were coated with 5 μg/mL cleaved-AREG peptide at 4° C. overnight. After washing thrice with PBST (PBS with 0.05% Tween20) and blocking for 2 h at RT with 5% non-fat dry milk in PBST, various concentrations of 1A3 and 1A3-VC-PAB-MMAE (0.001, 0.01, 0.1, 1 μg/mL) were added to the wells and incubated for 2 h at RT. The wells were washed four times with PBST and were incubated at RT with Goat anti-rabbit IgG (H+L) Cross-adsorbed-HRP conjugate secondary Ab (ThermoFisher G-21234) for 1 h. One-Step™ Turbo™ B-ELISA Substrate Solution (Thermo Fisher Scientific) was added to the wells for color development, incubated for 15 min and the reaction was stopped by adding 2 M H2SO4.

[1] = target: T2, Trunc AREG (fragment that remains cell-bound after cleavage by ADAM17) (Homo sapiens, UniProt P15514); test: Immunoblot of TRF-conjugated AREG peptides, cleaved mimic; type: binding; conditions: 1 μg/mL antibody, 200 ng TRF-conjugated peptide
T2 construct: host or cells: synthetic peptide conjugated to transferrin
Method: (§1) Monomethyl auristatin E (MMAE) conjugated 1A3 antibody (1A3-VC-PAB-MMAE) was prepared using a kit (CM11409) from CellMosaic Inc. (Woburn, MA, USA) following the manufacturer's instructions. Maleimide-activated valine-citrulline p-aminobenzylcarbamate (VCPAB) MMAE was coupled directly to the antibody after reduction through alkylation.^13 The specificity of 1A3 and 1A3-VC-PAB-MMAE to peptides representing human cleaved-AREG was confirmed by immunoblotting. Briefly, transferrin (TRF) conjugated peptides representing cleaved and uncleaved AREG (200 ng) were electrophoresed on SDS-PAGE gels, transferred to PVDF membrane and probed with 1 μg/mL of 1A3 and 1A3-VC-PAB-MMAE. Horseradish peroxidase-conjugated goat anti-rabbit IgG was used. Antibody binding was detected with enhanced chemiluminescence (ECL; Amersham, Arlington Heights, IL, USA). Furthermore, the characterization and purity of 1A3-VC-PAB-MMAE were analyzed using hydrophobic interaction chromatography (HIC) and size-exclusion chromatography (Cell Mosaic).

[2] = target: T3, FL AREG (peptide representing uncleaved AREG) (Homo sapiens, UniProt P15514); test: Immunoblot of TRF-conjugated AREG peptides, intact cleavage site; type: binding; conditions: 1 μg/mL antibody, 200 ng TRF-conjugated peptide
T3 construct: a peptide spanning this region (SMKTHSMIDSSLSKIAC); host or cells: synthetic peptide conjugated to transferrin
Method: as §1

MCF7 cells = test: Clonogenic assay; type: cell-based, human; conditions: MCF7, 25 or 50 nM, 72 h then 14 days
Method: (§2) MCF7 breast cancer cells were plated in 48-well plates, allowed to attach overnight and treated with 12.5, 25 or 50 nM of 1A3-VC-PAB-MMAE for 72 h. A vehicle treated well served as control. After removing the ADC-containing medium, cells were washed using PBS, trypsinized and plated at a density of 1000 cells/well in 12-well plates. The cells were cultured for 14 days, with fresh medium addition every 3 days. The colonies were stained with 0.5% crystal violet solution. The number of colonies per well was counted.

MCF7-F cells = test: Clonogenic assay; type: cell-based, human; conditions: 25 or 50 nM, 72 h then 14 days
Method: as §2

MCF-7 cells = test: Tubulin staining (microtubule integrity); type: cell-based, human; conditions: 48 h treatment
Method: FIGS. 4A-4E. In vitro 1A3-MMAE cytotoxicity in MCF-7 (FIG. 4A) and MCF-7F (FIG. 4B) cells measured by MTT assay after treatment with 1A3-MMAE, 1A3 or MMAE. FIG. 4C: Clonogenic growth of MCF-7 or MCF-7F cells after exposure to 1A3-MMAE and replating. FIG. 4D: The quantification of clonogenic growth assays in FIG. 4C. (FIG. 4E). Tubulin staining of MCF-7 cells after 48 h treatment with MMAE, 1A3, 1A3-MMAE (40× magnification).

MCF7 xenografts = test: Orthotopic MCF7 breast cancer xenograft in NSG mice; type: in vivo, mouse
Excerpt: (§3) In Vivo Antitumor Activity Studies: The animal experiments were approved by the Institutional Animal Care and Use Committee of University of Wisconsin La Crosse (La Crosse, Wisconsin, USA). Four-week-old female NOD.Cg-Prkdc^scid II2rg^tm1Wjl/SzJ mice (NSG; The Jackson Laboratory) were acclimated for 1 week before the experiments. For MCF7 breast cancer xenograft model, the mice were implanted subcutaneously with 0.72-mg 17β-estradiol 90-day release tablets (Innovative Research of America) 3 days prior to cell injection. […] Firefly luciferase expressing MCF7 and MCF7-F cells (2×10^6 cells in a 1:1 mixture of serum-free DMEM and Matrigel) were injected orthotopically into the fourth inguinal mammary fat pad of each mouse. Once the tumors were well established, each cell line cohort was divided into three groups (n=5). Mean tumor volume at the start of treatment was 111 mm^3 for the MCF7 cohorts and 119 mm^3 for the MCF7-F cohorts. The mice were treated by intraperitoneal injection every 4 days for a total of six doses with unconjugated or MMAE conjugated anti-cleaved-AREG 1A3 antibody (5 mg/kg), or vehicle control (PBS). Tumor volumes were calculated from caliper data by using the formula: Volume (mm^3)=(Length×Width^2)/2. Mice were imaged weekly with the in vivo FX PRO imaging system (Carestream Molecular Imaging, Woodbridge, CA, USA) after injecting luciferin (150 mg/kg body weight). Tumor volume and body weight were monitored once a week. Statistical Analysis:
(§4) To test in vivo efficacy of 1A3-MMAE, human breast cancer cell lines expressing luciferase were injected orthotopically into NSG mice (one tumor in each inguinal mammary gland). Once the average tumor size reached approximately 100-125 mm^3, mice were randomized to one of three treatment groups: PBS, 1A3 (5 mg/kg) or 1A3-MMAE (5 mg/kg). Mice received intraperitoneal injections every 4 days for six total injections and were monitored for tumor progression or regression. Similar experiments were performed with MCF7 (FIGS. 5A, 5B, and 5C, left panels) and MCF7-F (FIGS. 5A, 5B, and 5C, right panels) xenografts.

MCF7-F xenografts = test: Orthotopic MCF7-F endocrine-resistant xenograft in NSG mice; type: in vivo, mouse
Excerpt: as §3, §4

MCF7 breast cancer cells = test: MTT cytotoxicity assay; conditions: MCF7, 1.56-200 nM, 72 h
Method: (§5) The cells were seeded at a density of 5000 cells/well in 96-well plates. Approximately 24 h after cell seeding, the cells were treated with varying doses (1.56, 3.125, 6.25, 12.5, 25, 50, 100 and 200 nM) of MMAE, 1A3 and 1A3-VC-PAB-MMAE. Untreated cells were used as control. After incubating for 72 h, the medium was aspirated and 50 μL of serum-free media and 50 μL of MTT solution (5 mg/mL solution in PBS) was added into each well; the cells were then incubated for 3 h at 37° C. The formazan crystals formed were dissolved with 4 mM HCl, 0.1% NP40 in isopropanol. The absorbance was measured at 590 nm using VersaMax Microplate Reader (Molecular Devices LLC, San Jose, California, USA). The assays were performed in triplicate.

[3] = test system: MCF7-F (fulvestrant-resistant MCF7) breast cancer cells; test: MTT cytotoxicity assay; conditions: 1.56-200 nM, 72 h
Method: as §5

B1: 1A3-MMAE: Monomethyl auristatin E (MMAE) conjugated 1A3 antibody via valine-citrulline p-aminobenzylcarbamate linker (conjugate)
VH: QSVKESEGRLVTPGTPLRLTCTVAGYSLSRYHMCWVRQAPGKGLEWIGMIGGSGRTDYASWAKGRFTISKTSTTVDLKITSPTTEDTATYFCSTVYTDSDGDFWGPGTLVTVSS
VL: AELDMTQTPSSKSVPVGGTVTINCQASESVYSNDRLAWFQQKPGQPPKLLIYYASTLASGVPSRFKGSGSGTQFTLTISDLECADAATYYCQSCYDMSSYGVAFGGGTELEIL
- binding to cleaved AREG peptide, unconjugated vs MMAE-conjugated (cleaved-AREG peptide): no substantial difference in binding
- recognition of truncated AREG peptide by immunoblot [1]: specifically recognized
- reaction with peptide representing uncleaved AREG by immunoblot [2]: did not react
- clonogenic survival (number of colonies relative to control) (MCF7 cells): dose-dependent effect on survival
- clonogenic survival (number of colonies relative to control) (MCF7-F cells): dose-dependent effect on survival
- tubulin disruption (microtubule integrity) (MCF-7 cells): exhibited tubulin disruption
- longitudinal luciferase imaging of xenografts (MCF7 xenografts; MCF7, 5 mg/kg): decreased in both volume and signal
- xenografts in which tumor volume decreased (maximum response) (MCF7 xenografts; MCF7, 5 mg/kg): 8/10
- xenografts in which tumor volume increased (maximum response) (MCF7 xenografts; MCF7, 5 mg/kg): 2/10
- tumor volume response by caliper measurements (MCF7 xenografts; MCF7, 5 mg/kg i.p. every 4 days, six doses): strong tumor shrinkage
- longitudinal luciferase imaging of xenografts (MCF7-F xenografts; 5 mg/kg): decreased in both volume and signal
- tumor volume response by caliper measurements (MCF7-F xenografts; 5 mg/kg i.p. every 4 days, six doses): strong tumor shrinkage
- xenografts cleared to sub-detectable levels (MCF7-F xenografts; 5 mg/kg, 10 xenografts): 10
- tumors recurred after follow-up (MCF7-F xenografts; 5 mg/kg, 204-day follow-up period): 10/10
- tumors returned to a size seen prior to treatment (MCF7-F xenografts; 204-day follow-up): only one tumor
- re-appearance of a lesion after the end of dosing (representative animal) (MCF7-F xenografts; luciferase imaging): 70 days
- cytotoxicity by MTT assay (MCF7 breast cancer cells): considerable cytotoxicity
- cytotoxicity by MTT assay [3]: considerable cytotoxicity
